Assay results from the Immune Epitope Database (IEDB).
pIC50: −log10 of the molar value.

What was measured:
Test in all cases: IEDB peptide-MHC binding, purified MHC/competitive/radioactivity; ≥ and ≤ were set here for values at or beyond the usual limits of such assays
[1] = biological target: HLA-A*02:06
[2] = biological target: HLA-A*02:02
[3] = biological target: HLA-A*02:03
[4] = biological target: HLA-A*02:01
[5] = biological target: HLA-A*68:02
[6] = source organism: Vaccinia virus WR
[7] = source organism: Hepacivirus hominis
[8] = source organism: Influenza A virus
[9] = source organism: Mammarenavirus lassaense
[10] = source organism: Mammarenavirus whitewaterense

Sequence | pIC50 [1, 6] | pIC50 [2, 6] | pIC50 [3, 6] | pIC50 [4, 6] | pIC50 [5, 6] | also measured
YTVEFDRDKV | 7.66 | 7.08 | 6.81 | 6.03 | 8.35 | 
LVIGVAFLAV |  |  |  |  |  | pIC50 ([1]; source organism: SARS-CoV1): 8.59; pIC50 ([2]; source organism: SARS-CoV1): 5.57; pIC50 ([3]; source organism: SARS-CoV1): 7.66; pIC50 ([4]; source organism: SARS-CoV1): 6.47; pIC50 ([5]; source organism: SARS-CoV1): 7.21
RVLYDEFVTI | 8.18 | 6.82 | 6.75 | 7.55 | 5.78 | 
LLFNKVTLA |  |  |  |  |  | pIC50 ([1]; source organism: SARS-CoV1): 8.05; pIC50 ([2]; source organism: SARS-CoV1): 9.02; pIC50 ([3]; source organism: SARS-CoV1): 8.96; pIC50 ([4]; source organism: SARS-CoV1): 8.30; pIC50 ([5]; source organism: SARS-CoV1): 6.54
WLLWPVTLA |  |  |  |  |  | pIC50 ([1]; source organism: SARS-CoV1): 7.77; pIC50 ([2]; source organism: SARS-CoV1): 7.92; pIC50 ([3]; source organism: SARS-CoV1): 8.92; pIC50 ([4]; source organism: SARS-CoV1): 8.17; pIC50 ([5]; source organism: SARS-CoV1): 6.82
FLLPLTSLVI | 8.60 | 7.96 | 8.29 | 9.08 | 5.99 | 
GLMWLSYFV |  |  |  |  |  | pIC50 ([1]; source organism: SARS-CoV1): 9.01; pIC50 ([2]; source organism: SARS-CoV1): 9.70; pIC50 ([3]; source organism: SARS-CoV1): 9.09; pIC50 ([4]; source organism: SARS-CoV1): 9.15; pIC50 ([5]; source organism: SARS-CoV1): 7.36
MMMNWSPTTA |  |  |  |  |  | pIC50 [1, 7]: 6.07; pIC50 [2, 7]: 7.85; pIC50 [3, 7]: 8.21; pIC50 [4, 7]: 7.47; pIC50 [5, 7]: 5.94
FICNLLLLFV |  |  |  |  |  | pIC50 ([1]; source organism: SARS-CoV1): 8.40; pIC50 ([2]; source organism: SARS-CoV1): 8.60; pIC50 ([3]; source organism: SARS-CoV1): 7.82; pIC50 ([4]; source organism: SARS-CoV1): 8.68; pIC50 ([5]; source organism: SARS-CoV1): 5.97
MQKFTILEYL | 6.04 | 6.79 | 6.55 | 5.43 | 5.43 | 
GTIILNKIV | 5.85 | 5.92 | 5.47 | 5.41 | 6.03 | 
ELKHGLLDSI | 5.87 | 6.27 | 7.26 | 6.13 | 6.58 | 
YLRGHTESI | 7.04 | 9.68 | 9.74 | 8.43 | 6.30 | 
VQEFIFSAL | 6.70 | 6.38 | 6.33 | 6.21 | 6.26 | 
FLAFLLFLVL |  |  |  |  |  | pIC50 ([1]; source organism: SARS-CoV1): 5.70; pIC50 ([2]; source organism: SARS-CoV1): 7.89; pIC50 ([3]; source organism: SARS-CoV1): 6.61; pIC50 ([4]; source organism: SARS-CoV1): 7.96; pIC50 ([5]; source organism: SARS-CoV1): 5.42
WLMWFIISIV |  |  |  |  |  | pIC50 ([1]; source organism: SARS-CoV1): 6.97; pIC50 ([2]; source organism: SARS-CoV1): 6.61; pIC50 ([3]; source organism: SARS-CoV1): 8.33; pIC50 ([4]; source organism: SARS-CoV1): 7.48; pIC50 ([5]; source organism: SARS-CoV1): 5.54
AMLKSKNINI | 6.70 | 5.78 | 6.65 | 6.76 | 5.32 | 
EMVEYLENQL | 6.38 | 6.67 | 6.68 | 6.31 | 5.78 | 

Sequence | pIC50 [1, 6] | pIC50 [2, 6] | pIC50 [3, 6] | pIC50 [4, 6] | pIC50 [5, 6] | also measured
IAVITETIPI | 9.00 | 6.29 | 7.49 | 7.28 | 6.81 | 
ILYYGANGST | 5.74 | 6.47 | 7.41 | 6.54 | 5.42 | 
MQALQLLLEV |  |  |  |  |  | pIC50 [1, 8]: 7.32; pIC50 [2, 8]: 6.83; pIC50 [3, 8]: 7.89; pIC50 [4, 8]: 7.17; pIC50 [5, 8]: 6.21
LNCLSLLLSV |  |  |  |  |  | pIC50 [1, 9]: 6.60; pIC50 [2, 9]: 6.91; pIC50 [3, 9]: 6.64; pIC50 [4, 9]: 6.72; pIC50 [5, 9]: 5.39
SMSQELAELL | 6.32 | 8.21 | 7.26 | 7.49 | 5.89 | 
CNYTKFWYV |  |  |  |  |  | pIC50 [1, 10]: 7.46; pIC50 [2, 10]: 5.71; pIC50 [3, 10]: 6.10; pIC50 [4, 10]: 6.14; pIC50 [5, 10]: 6.61
TLLGLILFVL | 6.17 | 6.77 | 6.10 | 7.46 | 6.14 | 
MLNRVQILM | 5.59 | 8.32 | 7.57 | 7.55 | 5.38 | 
YMLVLAEALI |  |  |  |  |  | pIC50 [1, 7]: 6.29; pIC50 [2, 7]: 6.97; pIC50 [3, 7]: 6.64; pIC50 [4, 7]: 6.82; pIC50 [5, 7]: 6.01
TINVNSLAL | 5.66 | 5.70 | 5.81 | 5.82 | 5.82 | 
SIISLFYTFA | 7.03 | 6.95 | 7.55 | 6.69 | 7.29 | 
LMSFTILCL |  |  |  |  |  | pIC50 ([1]; source organism: SARS-CoV1): 8.74; pIC50 ([2]; source organism: SARS-CoV1): 9.57; pIC50 ([3]; source organism: SARS-CoV1): 7.80; pIC50 ([4]; source organism: SARS-CoV1): 9.85; pIC50 ([5]; source organism: SARS-CoV1): 6.15
YASALVLLI |  |  |  |  |  | pIC50 ([1]; source organism: SARS-CoV1): 8.06; pIC50 ([2]; source organism: SARS-CoV1): 8.49; pIC50 ([3]; source organism: SARS-CoV1): 8.31; pIC50 ([4]; source organism: SARS-CoV1): 7.89; pIC50 ([5]; source organism: SARS-CoV1): 8.00
LIQDWIPPL |  |  |  |  |  | pIC50 [1, 7]: 7.27; pIC50 [2, 7]: 6.96; pIC50 [3, 7]: 6.75; pIC50 [4, 7]: 7.01; pIC50 [5, 7]: 5.85
SIPISELSRL | 7.11 | 6.60 | 7.21 | 5.65 | 6.37 | 
YMVTDKTAYI | 8.21 | 9.64 | 9.55 | 8.32 | 8.82 | 
LLALLSCISV |  |  |  |  |  | pIC50 [1, 7]: 7.80; pIC50 [2, 7]: 9.11; pIC50 [3, 7]: 8.89; pIC50 [4, 7]: 8.62; pIC50 [5, 7]: 5.61
